{"source": "patent US20260117202A1", "key": {"FHCS-4 (RSV strain A2) [1]": {"target": "FHCS-4 (RSV strain A2) (UniProt P03420)", "test": "ELISA; F coated 10000 ng/ml; stored -80° C."}, "FHCS-2 (RSV strain A2) [2]": {"target": "FHCS-2 (RSV strain A2) (UniProt P03420)", "test": "ELISA; F coated 10000 ng/ml; stored -80° C."}, "FHCS-1 (RSV strain A2) [3]": {"target": "FHCS-1 (RSV strain A2) (UniProt P03420)", "test": "ELISA; F coated 10000 ng/ml; stored -80° C."}, "FHCS-4 (RSV strain A2) [4]": {"target": "FHCS-4 (RSV strain A2) (UniProt P03420)", "test": "ELISA; F coated 5000 ng/ml; stored -80° C."}, "FHCS-2 (RSV strain A2) [5]": {"target": "FHCS-2 (RSV strain A2) (UniProt P03420)", "test": "ELISA; F coated 5000 ng/ml; stored -80° C."}, "FHCS-1 (RSV strain A2) [6]": {"target": "FHCS-1 (RSV strain A2) (UniProt P03420)", "test": "ELISA; F coated 5000 ng/ml; stored -80° C."}, "FHCS-1 (RSV strain A2) [7]": {"target": "FHCS-1 (RSV strain A2) (UniProt P03420)", "test": "ELISA; F coated 312.5 ng/ml; stored -80° C."}, "FHCS-4 (RSV strain A2) [8]": {"target": "FHCS-4 (RSV strain A2) (UniProt P03420)", "test": "ELISA; F coated 5000 ng/ml; stored -80° C.", "remark": "listed apart in the source"}, "FHCS-2 (RSV strain A2) [9]": {"target": "FHCS-2 (RSV strain A2) (UniProt P03420)", "test": "ELISA; F coated 5000 ng/ml; stored -80° C.", "remark": "listed apart in the source"}, "FHCS-1 (RSV strain A2) [10]": {"target": "FHCS-1 (RSV strain A2) (UniProt P03420)", "test": "ELISA; F coated 5000 ng/ml; stored -80° C.", "remark": "listed apart in the source"}, "[11]": {"target": "wild-type RSV F protein 2 before artificial mutation (RSV strain A2) (UniProt P03420)", "test": "sandwich ELISA, AM14 coated, F at 2 µg/ml"}, "FHCS-4 (RSV strain A2) [12]": {"target": "FHCS-4 (RSV strain A2) (UniProt P03420)", "test": "ELISA; F coated 156.3 ng/ml; stored -80° C."}, "FHCS-2 (RSV strain A2) [13]": {"target": "FHCS-2 (RSV strain A2) (UniProt P03420)", "test": "ELISA; F coated 156.3 ng/ml; stored -80° C."}, "FHCS-4 (RSV strain A2) [14]": {"target": "FHCS-4 (RSV strain A2) (UniProt P03420)", "test": "ELISA; F coated 312.5 ng/ml; stored 37° C. 2 W"}, "FHCS-2 (RSV strain A2) [15]": {"target": "FHCS-2 (RSV strain A2) (UniProt P03420)", "test": "ELISA; F coated 312.5 ng/ml; stored 37° C. 2 W"}, "FHCS-1 (RSV strain A2) [16]": {"target": "FHCS-1 (RSV strain A2) (UniProt P03420)", "test": "ELISA; F coated 312.5 ng/ml; stored 37° C. 2 W"}, "FHCS-4 (RSV strain A2) [17]": {"target": "FHCS-4 (RSV strain A2) (UniProt P03420)", "test": "ELISA; F coated 156.3 ng/ml; stored 37° C. 2 W"}, "FHCS-2 (RSV strain A2) [18]": {"target": "FHCS-2 (RSV strain A2) (UniProt P03420)", "test": "ELISA; F coated 156.3 ng/ml; stored 37° C. 2 W"}, "FHCS-1 (RSV strain A2) [19]": {"target": "FHCS-1 (RSV strain A2) (UniProt P03420)", "test": "ELISA; F coated 156.3 ng/ml; stored 37° C. 2 W"}, "FHCS-2 (RSV strain A2) [20]": {"target": "FHCS-2 (RSV strain A2) (UniProt P03420)", "test": "ELISA; F coated 2500 ng/ml; stored 37° C. 2 W"}, "FHCS-4 (RSV strain A2) [21]": {"target": "FHCS-4 (RSV strain A2) (UniProt P03420)", "test": "ELISA; F coated 78.13 ng/ml; stored -80° C."}, "FHCS-2 (RSV strain A2) [22]": {"target": "FHCS-2 (RSV strain A2) (UniProt P03420)", "test": "ELISA; F coated 78.13 ng/ml; stored -80° C."}, "FHCS-4 (RSV strain A2) [23]": {"target": "FHCS-4 (RSV strain A2) (UniProt P03420)", "test": "ELISA; F coated 78.13 ng/ml; stored -80° C.", "remark": "listed apart in the source"}, "FHCS-2 (RSV strain A2) [24]": {"target": "FHCS-2 (RSV strain A2) (UniProt P03420)", "test": "ELISA; F coated 78.13 ng/ml; stored -80° C.", "remark": "listed apart in the source"}, "FHCS-1 (RSV strain A2) [25]": {"target": "FHCS-1 (RSV strain A2) (UniProt P03420)", "test": "ELISA; F coated 78.13 ng/ml; stored -80° C."}, "FHCS-4 (RSV strain A2) [26]": {"target": "FHCS-4 (RSV strain A2) (UniProt P03420)", "test": "ELISA; F coated 1250 ng/ml; stored 37° C. 2 W"}, "FHCS-2 (RSV strain A2) [27]": {"target": "FHCS-2 (RSV strain A2) (UniProt P03420)", "test": "ELISA; F coated 1250 ng/ml; stored 37° C. 2 W"}, "FHCS-1 (RSV strain A2) [28]": {"target": "FHCS-1 (RSV strain A2) (UniProt P03420)", "test": "ELISA; F coated 1250 ng/ml; stored 37° C. 2 W"}}, "note": "Values joined by “and” are separate entries in the source; they are usually repeats but may differ in a detail not shown here. Identical values can stand only once."}
{"substance": "AM14 monoclonal antibody", "values": [{"measurement": "OD value", "setting": "FHCS-4 (RSV strain A2) [1]", "result": "0.825 OD and 0.743 OD"}, {"measurement": "OD value", "setting": "FHCS-2 (RSV strain A2) [2]", "result": "2.01 OD and 2.11 OD"}, {"measurement": "OD value", "setting": "FHCS-1 (RSV strain A2) [3]", "result": "1.77 OD and 2.07 OD"}, {"measurement": "OD value", "setting": "FHCS-4 (RSV strain A2) [4]", "result": "0.404 OD and 0.294 OD"}, {"measurement": "OD value", "setting": "FHCS-2 (RSV strain A2) [5]", "result": "0.203 OD and 0.382 OD"}, {"measurement": "OD value", "setting": "FHCS-1 (RSV strain A2) [6]", "result": "0.158 OD and 0.167 OD"}, {"measurement": "OD value", "setting": "FHCS-1 (RSV strain A2) [7]", "result": "0.004 OD and 0.008 OD"}, {"measurement": "OD value", "setting": "FHCS-4 (RSV strain A2) [8]", "result": "0.252 OD and 0.209 OD"}, {"measurement": "OD value", "setting": "FHCS-2 (RSV strain A2) [9]", "result": "0.985 OD and 0.796 OD"}, {"measurement": "OD value", "setting": "FHCS-1 (RSV strain A2) [10]", "result": "0.902 OD and 0.775 OD"}, {"measurement": "OD value", "setting": "[11]", "result": 0.01, "unit": "OD"}]}
{"substance": "Synagis® (antibody)", "values": [{"measurement": "OD value", "setting": "FHCS-4 (RSV strain A2) [12]", "result": "0.021 OD and 0.017 OD"}, {"measurement": "OD value", "setting": "FHCS-2 (RSV strain A2) [13]", "result": "0.028 OD and 0.032 OD"}, {"measurement": "OD value", "setting": "FHCS-4 (RSV strain A2) [14]", "result": "0.074 OD and 0.071 OD"}, {"measurement": "OD value", "setting": "FHCS-2 (RSV strain A2) [15]", "result": "0.084 OD and 0.095 OD"}, {"measurement": "OD value", "setting": "FHCS-1 (RSV strain A2) [16]", "result": "0.051 OD and 0.05 OD"}, {"measurement": "OD value", "setting": "FHCS-4 (RSV strain A2) [17]", "result": "0.033 OD and 0.024 OD"}, {"measurement": "OD value", "setting": "FHCS-2 (RSV strain A2) [18]", "result": "0.037 OD and 0.036 OD"}, {"measurement": "OD value", "setting": "FHCS-1 (RSV strain A2) [19]", "result": "0.017 OD and 0.018 OD"}, {"measurement": "OD value", "setting": "FHCS-2 (RSV strain A2) [20]", "result": "1.6 OD and 1.85 OD"}, {"measurement": "OD value", "setting": "FHCS-4 (RSV strain A2) [21]", "result": 0.008, "unit": "OD"}, {"measurement": "OD value", "setting": "FHCS-2 (RSV strain A2) [22]", "result": 0.016, "unit": "OD"}, {"measurement": "OD value", "setting": "FHCS-4 (RSV strain A2) [23]", "result": "0.009 OD and 0.011 OD"}, {"measurement": "OD value", "setting": "FHCS-2 (RSV strain A2) [24]", "result": "0.014 OD and 0.015 OD"}, {"measurement": "OD value", "setting": "FHCS-1 (RSV strain A2) [25]", "result": "0.009 OD and 0.01 OD"}, {"measurement": "OD value", "setting": "FHCS-4 (RSV strain A2) [26]", "result": "0.535 OD and 0.54 OD"}, {"measurement": "OD value", "setting": "FHCS-2 (RSV strain A2) [27]", "result": "0.78 OD and 0.704 OD"}, {"measurement": "OD value", "setting": "FHCS-1 (RSV strain A2) [28]", "result": "0.478 OD and 0.493 OD"}]}
